Experimental data published in PMC3942289, “Characterization of Ten Heterotetrameric NDP-Dependent Acyl-CoA Synthetases of the Hyperthermophilic Archaeon Pyrococcus furiosus” (Archaea, 2014).

What was measured:
ACS3-G = target: T1, ACS3-G (Pyrococcus furiosus, UniProt E7FHP1+Q8U461); conditions: reverse reaction; 20 mM acid, 1 mM ATP or GTP, 0.5 mM CoA, 2 mM MgCl2, pH 7.0, 80°C
T1 construct: gene PF0233

ACS4-G = target: T2, ACS4-G (Pyrococcus furiosus, UniProt E7FHP1+Q8U1W9); conditions: reverse reaction; 20 mM acid, 1 mM ATP or GTP, 0.5 mM CoA, 2 mM MgCl2, pH 7.0, 80°C
T2 construct: gene PF1085
T2 sequence (Q8U1W9 1-442): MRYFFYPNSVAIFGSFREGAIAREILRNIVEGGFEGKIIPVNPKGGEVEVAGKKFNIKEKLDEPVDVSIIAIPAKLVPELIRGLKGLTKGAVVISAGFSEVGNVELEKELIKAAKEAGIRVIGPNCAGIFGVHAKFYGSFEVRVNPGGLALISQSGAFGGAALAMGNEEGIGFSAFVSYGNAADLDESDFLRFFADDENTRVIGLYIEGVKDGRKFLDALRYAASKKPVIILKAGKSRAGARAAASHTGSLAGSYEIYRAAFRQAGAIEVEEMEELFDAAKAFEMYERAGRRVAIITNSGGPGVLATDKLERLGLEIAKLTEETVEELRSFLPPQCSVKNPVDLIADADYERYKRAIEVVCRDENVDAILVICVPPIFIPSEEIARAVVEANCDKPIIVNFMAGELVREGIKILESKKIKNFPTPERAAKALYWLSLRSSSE
T2 sequence (E7FHP1 whole entry): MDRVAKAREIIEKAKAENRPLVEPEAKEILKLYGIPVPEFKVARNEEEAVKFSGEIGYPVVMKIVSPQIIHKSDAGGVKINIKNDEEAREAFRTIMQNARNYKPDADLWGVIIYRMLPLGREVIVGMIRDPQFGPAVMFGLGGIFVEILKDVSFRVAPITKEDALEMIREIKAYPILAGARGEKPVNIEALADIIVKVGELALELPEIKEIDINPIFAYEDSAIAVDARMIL

ACS2-G = target: T3, ACS2-G (Pyrococcus furiosus, UniProt E7FHP1+Q8U3D6); conditions: reverse reaction; 20 mM acid, 1 mM ATP or GTP, 0.5 mM CoA, 2 mM MgCl2, pH 7.0, 80°C
T3 construct: gene acdAII
T3 sequence (Q8U3D6 whole entry): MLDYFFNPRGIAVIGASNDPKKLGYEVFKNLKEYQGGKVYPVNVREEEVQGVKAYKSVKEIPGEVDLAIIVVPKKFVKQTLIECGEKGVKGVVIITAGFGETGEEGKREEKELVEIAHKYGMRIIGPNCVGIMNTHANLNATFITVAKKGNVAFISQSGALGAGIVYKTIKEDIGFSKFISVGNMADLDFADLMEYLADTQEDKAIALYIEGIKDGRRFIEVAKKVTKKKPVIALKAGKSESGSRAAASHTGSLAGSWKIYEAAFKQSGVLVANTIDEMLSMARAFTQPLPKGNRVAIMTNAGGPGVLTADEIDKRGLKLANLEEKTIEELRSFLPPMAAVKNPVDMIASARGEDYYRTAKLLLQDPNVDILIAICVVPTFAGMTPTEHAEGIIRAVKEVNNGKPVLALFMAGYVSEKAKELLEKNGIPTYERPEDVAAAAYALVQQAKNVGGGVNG
T3 sequence (E7FHP1 whole entry): as the sequence (E7FHP1 whole entry) above

[1] = substrate: CC(C)CC(=O)SCCNC(=O)CCNC(=O)[C@H](O)C(C)(C)COP(=O)(O)OP(=O)(O)OC[C@H]1O[C@@H](n2cnc3c(N)ncnc32)[C@H](O)[C@@H]1OP(=O)(O)O; assay: DTNB assay of released CoASH, 96-well; assay type: biochemical, Pyrococcus furiosus; conditions: forward reaction, 2 mM ADP, 10 mM K2HPO4, 2 mM MgCl2, pH 7.0, 80°C
Text: (§1) DTNB assay of released CoASH, 96-well on ACS5-A

[2] = substrate: CC(=O)SCCNC(=O)CCNC(=O)[C@H](O)C(C)(C)COP(=O)(O)OP(=O)(O)OC[C@H]1O[C@@H](n2cnc3c(N)ncnc32)[C@H](O)[C@@H]1OP(=O)(O)O; assay: DTNB assay of released CoASH, 96-well; assay type: biochemical, Pyrococcus furiosus; conditions: forward reaction, 2 mM ADP, 10 mM K2HPO4, 2 mM MgCl2, pH 7.0, 80°C
Text: as §1

[3] = substrate: CC(C)C(=O)SCCNC(=O)CCNC(=O)[C@H](O)C(C)(C)COP(=O)(O)OP(=O)(O)OC[C@H]1O[C@@H](n2cnc3c(N)ncnc32)[C@H](O)[C@@H]1OP(=O)(O)O; assay: DTNB assay of released CoASH, 96-well; assay type: biochemical, Pyrococcus furiosus; conditions: forward reaction, 2 mM ADP, 10 mM K2HPO4, 2 mM MgCl2, pH 7.0, 80°C
Text: as §1

T1 sequence (Q8U461 1-465): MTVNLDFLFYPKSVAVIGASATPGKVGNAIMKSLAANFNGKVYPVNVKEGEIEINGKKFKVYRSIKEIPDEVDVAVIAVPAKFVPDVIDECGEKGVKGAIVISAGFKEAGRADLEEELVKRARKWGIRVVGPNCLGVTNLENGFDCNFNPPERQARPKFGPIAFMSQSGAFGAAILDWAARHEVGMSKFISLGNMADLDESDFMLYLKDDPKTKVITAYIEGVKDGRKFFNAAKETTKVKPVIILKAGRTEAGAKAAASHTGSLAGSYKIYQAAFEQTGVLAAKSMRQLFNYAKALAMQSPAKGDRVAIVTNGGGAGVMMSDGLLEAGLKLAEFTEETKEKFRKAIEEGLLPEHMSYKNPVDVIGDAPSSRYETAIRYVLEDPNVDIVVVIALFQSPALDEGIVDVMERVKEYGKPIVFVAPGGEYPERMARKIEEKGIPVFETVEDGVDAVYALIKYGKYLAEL
T1 sequence (E7FHP1 whole entry): as the sequence (E7FHP1 whole entry) above

**Q.** How did the relative activity (ACS3-G) turn out when O=C(O)CCC(=O)O [succinate] was run?
**A.** The relative activity was “The only isoenzyme that showed activity with succinate was ACS3”.

**Q.** Which relative activity (ACS4-G) does the source give for O=C(O)Cc1c[nH]cn1 [imidazole 4-acetate] here?
**A.** Its relative activity is “ACS4 was the only isoenzyme that shows significant activity with imidazole 4-acetate”.

**Q.** How did the relative activity (ACS2-G) turn out when CSCCC(=O)O [3-methylthiopropionate] was run?
**A.** Its relative activity is “Surprisingly, ACS2 was also active with 3-methylthiopropionate”.

B1: ACS5-A (Pyrococcus furiosus DSM 3638) (protein)
chain 1: MINNLDIKEQLRSFFDPKAVAIIGATNKKGKVGNVIFENFKRNKERGIFKGNIYPVNPKLDEIDGYKVYHSVEELPDDTDLAVVAIPAPAVPETMRKIAEKGIKAVVIITGGFGELGEEGKRMEQEILEIARAHGIRVIGPNCVGVYVPDTGVDTVFLPEEKMDRPKSGPIAFVSQSGAFAAAMLDWAAMAGIGIGKMVSYGNKIDVDDADLMEYFAQDEQIKVMTFYIEGVKDGRRFMEVAKRVTKIKPIIALKSGRTEYGAKAASSHTGSLAGQDVIYDAVFKQTGIIRAEDFEHMFDLAKAFAKCKLPKGDRIGIITDGGGAGVMASDAVAKFGLKLAELSEETLRFLREKFPPHAVVGNPTDVVGDTDAERYRLALEAFTKDPNVDAILVIVLFQVPLLDEEEVIEIIADYAKKSDKPIVAVSMGGYKTDRYAKMLEEKGVPVYPTPERGVRALAGLVRYAEYLRKMGE
chain 2: MKGEALKIIEEVLAQGRTAMVEYEAKQVLKAYGLPVPEEKLAKTLDEALKYAEEIGYPVAMKLMSPQILHKSDAKVVMLNIKSPEELKKKWEEIHENARKYRPDAEIFGVLIAPMLKPGREVIIGVTEDPQFGHAIMFGLGGIFVEILKDVTFRIIPITEKDARKMITEIKAYPILAGARGEEPADIEAIVDMLLKVSKLVDDLKDYIKEMDLNPVFVYRKGEGAVVVDARIILKG
notes: alpha (pET24a) and beta-A (pET21b) coexpressed in E. coli BL21(DE3) pRIL, untagged, heat-treated and desalted; alpha2beta2 ~140 kDa; The same primer pair is printed for PF1838 and PF1837 (probable misprint)
**Q.** With B1 as the molecule, how does the Km [1] read?
**A.** Its Km is 820 ± 407 µM.

**Q.** What about the kcat/Km [1] of the same molecule?
**A.** Its kcat/Km is 120000 M⁻¹ s⁻¹.

**Q.** What about the Km [2] of the same molecule?
**A.** Its Km is 620 ± 1.0 µM.

**Q.** What about the kcat/Km [2] of the same molecule?
**A.** Its kcat/Km is 112000 M⁻¹ s⁻¹.

**Q.** What about the Km [3] of the same molecule?
**A.** Its Km is 2730 ± 1080 µM.

**Q.** And the kcat/Km [3]?
**A.** The kcat/Km was 83000 M⁻¹ s⁻¹.
